Source: US20260234255A1 (Genmab, published 2026)

T1: human CD30 (human, UniProt P28908 19-595)
T1 construct: The same molecule is used for CD30 on HL/ALCL/NHL cell lines; also called huCD30; TNFRSF8
T1 sequence: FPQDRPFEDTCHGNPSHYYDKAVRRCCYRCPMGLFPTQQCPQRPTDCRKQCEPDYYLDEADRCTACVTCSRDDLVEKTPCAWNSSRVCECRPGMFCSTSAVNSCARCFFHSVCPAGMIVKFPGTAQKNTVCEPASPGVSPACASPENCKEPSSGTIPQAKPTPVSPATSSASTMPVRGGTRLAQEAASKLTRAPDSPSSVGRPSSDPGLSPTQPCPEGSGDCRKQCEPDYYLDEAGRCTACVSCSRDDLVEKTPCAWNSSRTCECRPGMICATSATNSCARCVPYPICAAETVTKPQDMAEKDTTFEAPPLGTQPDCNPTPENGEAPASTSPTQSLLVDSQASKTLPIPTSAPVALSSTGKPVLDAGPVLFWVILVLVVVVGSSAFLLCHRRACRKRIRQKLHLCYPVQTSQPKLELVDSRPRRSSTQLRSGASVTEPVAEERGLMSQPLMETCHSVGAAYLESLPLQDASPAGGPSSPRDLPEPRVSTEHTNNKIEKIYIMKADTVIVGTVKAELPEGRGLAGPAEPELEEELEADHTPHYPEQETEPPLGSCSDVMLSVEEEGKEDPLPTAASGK

B1: bsG1-huCD3-FEALxCD30-MDX060-FEAR (bispecific antibody, human IgG1, kappa, lambda)
heavy 1: not shown
light 1: not shown
heavy 2: QVQLQQWGAGLLKPSETLSLTCAVYGGSFSAYYWSWIRQPPGKGLEWIGDINHGGGTNYNPSLKSRVTISVDTSKNQFSLKLNSVTAADTAVYYCASLTAYWGQGSLVTVSSASTKGPSVFPLAPSSKSTSGGTAALGCLVKDYFPEPVTVSWNSGALTSGVHTFPAVLQSSGLYSLSSVVTVPSSSLGTQTYICNVNHKPSNTKVDKRVEPKSCDKTHTCPPCPAPEFEGGPSVFLFPPKPKDTLMISRTPEVTCVVVAVSHEDPEVKFNWYVDGVEVHNAKTKPREEQYNSTYRVVSVLTVLHQDWLNGKEYKCKVSNKALPAPIEKTISKAKGQPREPQVYTLPPSREEMTKNQVSLTCLVKGFYPSDIAVEWESNGQPENNYKTTPPVLDSDGSFFLYSRLTVDKSRWQQGNVFSCSVMHEALHNHYTQKSLSLSPG
light 2: DIQMTQSPTSLSASVGDRVTITCRASQGISSWLTWYQQKPEKAPKSLIYAASSLQSGVPSRFSGSGSGTDFTLTISSLQPEDFATYYCQQYDSYPITFGQGTRLEIKRTVAAPSVFIFPPSDEQLKSGTASVVCLLNNFYPREAKVQWKVDNALQSGNSQESVTEQDSKDSTYSLSSTLTLSKADYEKHKVYACEVTHQGLSSPVTKSFNRGEC
notes: also called bsG1-huCD3xCD30-MDX060
B2: bsG1-huCD3-FEALxCD30-MDX060-FERR (bispecific antibody, human IgG1, kappa, lambda)
heavy 1: not shown
light 1: not shown
heavy 2: QVQLQQWGAGLLKPSETLSLTCAVYGGSFSAYYWSWIRQPPGKGLEWIGDINHGGGTNYNPSLKSRVTISVDTSKNQFSLKLNSVTAADTAVYYCASLTAYWGQGSLVTVSSASTKGPSVFPLAPSSKSTSGGTAALGCLVKDYFPEPVTVSWNSGALTSGVHTFPAVLQSSGLYSLSSVVTVPSSSLGTQTYICNVNHKPSNTKVDKRVEPKSCDKTHTCPPCPAPEFERGPSVFLFPPKPKDTLMISRTPEVTCVVVDVSHEDPEVKFNWYVDGVEVHNAKTKPREEQYNSTYRVVSVLTVLHQDWLNGKEYKCKVSNKALPAPIEKTISKAKGQPREPQVYTLPPSREEMTKNQVSLTCLVKGFYPSDIAVEWESNGQPENNYKTTPPVLDSDGSFFLYSRLTVDKSRWQQGNVFSCSVMHEALHNHYTQKSLSLSPG
light 2: DIQMTQSPTSLSASVGDRVTITCRASQGISSWLTWYQQKPEKAPKSLIYAASSLQSGVPSRFSGSGSGTDFTLTISSLQPEDFATYYCQQYDSYPITFGQGTRLEIKRTVAAPSVFIFPPSDEQLKSGTASVVCLLNNFYPREAKVQWKVDNALQSGNSQESVTEQDSKDSTYSLSSTLTLSKADYEKHKVYACEVTHQGLSSPVTKSFNRGEC
notes: Bispecific IgG1 made by controlled Fab-arm exchange; also called bsIgG1-huCD3-FEALxCD30-MDX060-FERR; bsG1-huCD3×CD30-MDX060

How the values were obtained:
[1] = biological target: T1, human CD30; assay: flow cytometry, DEL cells, experiment N = 2
[2] = biological target: T1, human CD30; assay: flow cytometry, L-428 cells, experiment N = 2
[3] = biological target: T1, human CD30; assay: flow cytometry, HDLM-2 cells, experiment N = 1
[4] = biological target: T1, human CD30; assay: flow cytometry, HDLM-2 cells, experiment N = 2
[5] = biological target: T1, human CD30; assay: flow cytometry, L-82 cells (ALCL), range of 2 tests
Description: (§1) Cells (3×10⁴ cells/well) were incubated in polystyrene 96-well round-bottom plates (Greiner bio-one, cat. no. 650180) with serial dilutions of antibodies (range 0.0046 to 10 μg/mL in 3-fold dilution steps) in 50 μL staining buffer at 4° C. for 30 min. After washing twice in staining buffer, cells were incubated with 50 μL secondary antibody at 4° C. for 30 min. […] Next, cells were washed twice in staining buffer, resuspended in 100 μL staining buffer supplemented with TO-PRO-3 iodide (Thermo Fisher Scientific; cat. no. T3605; 1:8000 dilution) and analyzed on a FACSCelesta flow cytometer (BD Biosciences, USA). Live cells were gated based on FSC/SSC and absence of TOPRO-3 staining. Binding curves were analyzed by non-linear regression of log-transformed data (sigmoidal dose-response with variable slope, four parameters) using GraphPad Prism V7.02 software (GraphPad Software, San Diego, CA, USA).

[6] = biological target: T1, human CD30; assay: flow cytometry, L-540 cells (HL), average of 3 tests
Description: as §1

[7] = biological target: T1, human CD30; assay: flow cytometry, L-1236 cells (HL), average of 3 tests
Description: as §1

[8] = biological target: T1, human CD30; assay: flow cytometry, SUP-M2 cells (ALCL), range of 3 tests
Description: as §1

[9] = biological target: T1, human CD30; assay: flow cytometry, HEK293 cells transfected with human CD30
Description: Cells (3×10⁴ cells/well) were incubated in polystyrene 96-well round-bottom plates (Thermo Scientific, cat. no. 163320) with serial dilutions of antibodies (ranging from 0.0002 to 50 μg/mL in 4-fold dilution steps) in 50 μL staining buffer at 4° C. for 30 min. Experiments were performed in technical duplicate. After washing twice in staining buffer, cells were incubated in 50 μL secondary antibody at 4° C. for 30 min. As a secondary antibody, R-PE-conjugated goat-anti-human IgG (Jackson ImmunoResearch, UK; cat. no. 109⁻¹¹⁶-098) diluted 1:200 in staining buffer was used. Cells were washed twice in staining buffer, resuspended in 30 μL staining buffer containing 0.4% EDTA and the ToPro-3 viability marker (Invitrogen, cat. no. T3605) diluted 1:10,000. Cells were analyzed on an iQue Screener (Intellicyt Corporation, USA). Binding curves were analyzed using non-linear regression (sigmoidal dose-response with variable slope) using GraphPad Prism V9.0.0 software (GraphPad Software, San Diego, CA, USA).

[10] = biological target: T2, complement protein C1q (human, UniProt P02745 23-245; P02746 28-253; P02747 29-245); assay: flow cytometry with FITC anti-C1q; antibody-opsonized activated human CD8+ T cells, 20% normal human serum as the source of C1q
T2 construct: 20% human serum was used as the source of C1q
Description: Activated CD8⁺ T cells were seeded in a round-bottom 96-well plate (30,000 cells/well), pelleted, and resuspended in 30 μL assay medium (RPMI-1640 with 25 mM HEPES and L-glutamine, supplemented with 0.1% [w/v] bovine serum albumin fraction V (BSA; Roche, cat. no. 10735086001) and penicillin/streptomycin).
Human serum (20 μL/well; Sanquin, lot 20L15-02), as a source of C1q, was added to a final concentration of 20%. Cells were incubated on ice for 45 min, followed by two washes with cold GMB FACS buffer and incubation with 50 μL fluorescein isothiocyanate (FITC)-conjugated rabbit anti-human C1q (final concentration of 20 μg/mL (DAKO, cat no. F0254); diluted 1:75 in GMB FACS buffer) in the presence or absence of allophycocyanin-conjugated mouse-anti-CD8 (BD Biosciences, cat. no. 555369; diluted 1:50 in GMB FACS buffer) in the dark at 4° C. for 30 min. […] C1q binding to viable cells (as identified by DAPI exclusion) was analyzed by flow cytometry on an iQue3 Screener (Intellicyt Corporation). Data were analyzed using iQue software (Intellicyt Corporation, ForeCyt® Enterprise Client Edition 6.2 [R3], Version 6.2.652).

T2 sequence (P02745 23-245 limits assumed, chain 1 of 3): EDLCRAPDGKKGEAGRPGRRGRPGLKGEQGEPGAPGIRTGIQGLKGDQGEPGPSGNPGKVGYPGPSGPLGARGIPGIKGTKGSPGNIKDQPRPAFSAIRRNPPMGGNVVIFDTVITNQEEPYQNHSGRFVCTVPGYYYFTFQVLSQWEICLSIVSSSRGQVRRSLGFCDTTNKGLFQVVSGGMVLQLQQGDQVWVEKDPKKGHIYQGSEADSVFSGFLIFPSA
T2 sequence (P02746 28-253 limits assumed, chain 2 of 3): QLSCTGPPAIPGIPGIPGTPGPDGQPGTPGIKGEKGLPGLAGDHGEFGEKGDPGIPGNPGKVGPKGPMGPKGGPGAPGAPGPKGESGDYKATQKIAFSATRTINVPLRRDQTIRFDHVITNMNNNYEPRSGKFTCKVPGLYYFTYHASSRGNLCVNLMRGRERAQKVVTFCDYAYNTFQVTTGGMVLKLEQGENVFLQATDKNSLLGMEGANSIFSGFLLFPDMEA
T2 sequence (P02747 29-245 limits assumed, chain 3 of 3): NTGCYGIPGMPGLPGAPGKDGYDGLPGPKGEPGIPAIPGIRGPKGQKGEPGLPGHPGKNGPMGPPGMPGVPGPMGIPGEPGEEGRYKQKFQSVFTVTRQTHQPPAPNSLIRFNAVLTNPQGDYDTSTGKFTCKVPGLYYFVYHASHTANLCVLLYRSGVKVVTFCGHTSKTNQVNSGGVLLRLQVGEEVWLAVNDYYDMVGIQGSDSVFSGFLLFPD

Binder	EC50 [1]	EC50 [2]	EC50 [3]	EC50 [4]	EC50 [5]	EC50 [6]	EC50 [7]	EC50 [8]	EC50 (read off the curve) [9]	binding result [10]
B1	0.0568 mg/L	0.0705 mg/L	0.145 mg/L	0.12 mg/L	–	–	–	–	–	–
B2	–	–	–	–	0.184 to 0.215 mg/L	0.323 mg/L	0.202 mg/L	0.134 to 0.223 mg/L	~0.1 mg/L	no binding (tested: about 30 µg/mL)
